Reference: patent US20190241648A1 (STATEN BIOTECHNOLOGY B V, published 2019)
Ends that are not written are not given here.

Legend:
Experiment in all cases: peptide microarray
ApoC3 peptide … L67Y = target: T1, ApoC3 peptide … L67Y (human, not fully specified (bridges); also: cyclic constrained)
T1 peptide: DKFSEFWDYDPEV
Method in brief: (§1)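 ApoC3 peptide microarrays incubated with antibody samples and then stained with goat anti-human IgG (Fc) DyLight680 plus anti-HA DyLight800 control antibody. Scanned at intensity 7/7 (red/green); a secondary-only prestain checked for background, and framing HA peptides served as quality control.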

ApoC3 peptide … L67R = target: T2, ApoC3 peptide … L67R (human, not fully specified (bridges); also: cyclic constrained)
T2 peptide: DKFSEFWDRDPEV
Method in brief: as §1

ApoC3 peptide … D59Q = target: T3, ApoC3 peptide … D59Q (human, cyclic constrained)
T3 peptide: QKFSEFWDLDPEV
Method in brief: as §1

ApoC3 peptide … W65V = target: T4, ApoC3 peptide … W65V (human, not fully specified (bridges); also: cyclic constrained, ring type and places not given here)
T4 peptide: DKFSEFVDLDPEV
Method in brief: as §1

ApoC3 peptide … S62E = ApoC3 peptide … S62E (human, cyclic constrained)
Method in brief: as §1

ApoC3 peptide … F64M = target: T5, ApoC3 peptide … F64M (human, not fully specified (bridges); also: cyclic constrained)
T5 peptide: DKFSEMWDLDPEV
Method in brief: as §1

ApoC3 peptide … F64Y = target: T6, ApoC3 peptide … F64Y (human, not fully specified (bridges); also: cyclic constrained)
T6 peptide: DKFSEYWDLDPEV
Method in brief: as §1

ApoC3 peptide … S62G = ApoC3 peptide … S62G (human, cyclic constrained)
Method in brief: as §1

ApoC3 peptide … E70L = target: T7, ApoC3 peptide … E70L (human, not fully specified (bridges); also: cyclic constrained)
T7 peptide: DKFSEFWDLDPLV
Method in brief: as §1

ApoC3 peptide … D66R = target: T8, ApoC3 peptide … D66R (human, not fully specified (bridges); also: cyclic constrained)
T8 peptide: DKFSEFWRLDPEV
Method in brief: as §1

ApoC3 peptide … K60G = target: T9, ApoC3 peptide … K60G (human, not fully specified (bridges); also: cyclic constrained)
T9 peptide: DGFSEFWDLDPEV
Method in brief: as §1

ApoC3 peptide … K60R = target: T10, ApoC3 peptide … K60R (human, not fully specified (bridges); also: cyclic constrained)
T10 peptide: DRFSEFWDLDPEV
Method in brief: as §1

ApoC3 peptide … V71E = ApoC3 peptide … V71E (human, cyclic constrained)
Method in brief: as §1

ApoC3 peptide … E63D = ApoC3 peptide … E63D (human, cyclic constrained)
Method in brief: as §1

ApoC3 peptide … K60I = target: T11, ApoC3 peptide … K60I (human, not fully specified (bridges); also: cyclic constrained)
T11 peptide: DIFSEFWDLDPEV
Method in brief: as §1

ApoC3 peptide … D66P = target: T12, ApoC3 peptide … D66P (human, not fully specified (bridges); also: cyclic constrained)
T12 peptide: DKFSEFWPLDPEV
Method in brief: as §1

ApoC3 peptide … D59W = target: T13, ApoC3 peptide … D59W (human, not fully specified (bridges); also: cyclic constrained)
T13 peptide: WKFSEFWDLDPEV
Method in brief: as §1

ApoC3 peptide … F64N = target: T14, ApoC3 peptide … F64N (human, not fully specified (bridges); also: cyclic constrained)
T14 peptide: DKFSENWDLDPEV
Method in brief: as §1

ApoC3 peptide … E70Q = target: T15, ApoC3 peptide … E70Q (human, not fully specified (bridges); also: cyclic constrained)
T15 peptide: DKFSEFWDLDPQV
Method in brief: as §1

ApoC3 peptide … E70V = target: T16, ApoC3 peptide … E70V (human, cyclic constrained)
T16 peptide: DKFSEFWDLDPVV
Method in brief: as §1

ApoC3 peptide … W65E = ApoC3 peptide … W65E (human, cyclic constrained)
Method in brief: as §1

ApoC3 peptide … D59Y = target: T17, ApoC3 peptide … D59Y (human, not fully specified (bridges); also: cyclic constrained)
T17 peptide: YKFSEFWDLDPEV
Method in brief: as §1

ApoC3 peptide … F61Q = target: T18, ApoC3 peptide … F61Q (human, not fully specified (bridges); also: cyclic constrained)
T18 peptide: DKQSEFWDLDPEV
Method in brief: as §1

ApoC3 peptide … K60M = target: T19, ApoC3 peptide … K60M (human, not fully specified (bridges); also: cyclic constrained)
T19 peptide: DMFSEFWDLDPEV
Method in brief: as §1

ApoC3 peptide … D68L = target: T20, ApoC3 peptide … D68L (human, cyclic constrained)
T20 peptide: DKFSEFWDLLPEV
Method in brief: as §1

ApoC3 peptide … K60L = target: T21, ApoC3 peptide … K60L (human, not fully specified (bridges); also: cyclic constrained)
T21 peptide: DLFSEFWDLDPEV
Method in brief: as §1

ApoC3 peptide … P69S = ApoC3 peptide … P69S (human, cyclic constrained)
Method in brief: as §1

ApoC3 peptide … F64C = target: T22, ApoC3 peptide … F64C (human, not fully specified (bridges); also: cyclic constrained)
T22 peptide: DKFSECWDLDPEV
Method in brief: as §1

ApoC3 peptide … L67G = target: T23, ApoC3 peptide … L67G (human, not fully specified (bridges); also: cyclic constrained)
T23 peptide: DKFSEFWDGDPEV
Method in brief: as §1

ApoC3 peptide … D68G = target: T24, ApoC3 peptide … D68G (human, cyclic constrained)
T24 peptide: DKFSEFWDLGPEV
Method in brief: as §1

ApoC3 peptide … W65H = target: T25, ApoC3 peptide … W65H (human, not fully specified (bridges); also: cyclic constrained, ring type and places not given here)
T25 peptide: DKFSEFHDLDPEV
Method in brief: as §1

ApoC3 peptide … F64S = target: T26, ApoC3 peptide … F64S (human, not fully specified (bridges); also: cyclic constrained)
T26 peptide: DKFSESWDLDPEV
Method in brief: as §1

ApoC3 peptide … D68Q = target: T27, ApoC3 peptide … D68Q (human, cyclic constrained)
T27 peptide: DKFSEFWDLQPEV
Method in brief: as §1

ApoC3 peptide … D66L = target: T28, ApoC3 peptide … D66L (human, not fully specified (bridges); also: cyclic constrained)
T28 peptide: DKFSEFWLLDPEV
Method in brief: as §1

ApoC3 peptide … D59T = target: T29, ApoC3 peptide … D59T (human, cyclic constrained)
T29 peptide: TKFSEFWDLDPEV
Method in brief: as §1

ApoC3 peptide … V71L = ApoC3 peptide … V71L (human, cyclic constrained)
Method in brief: as §1

B1: anti-ApoC3 antibody 6A6 (antibody, V domains shown)
VH: EVQLVESGGGLVQPGGSLRLSCAASGFTFSSYAGRWVRQVPGKGLEWVSSINAGGGSTSYADSVKGRFTISRDNAKNTLYLQMNSLKPEDTAKYYCTQNSYRYWGQGTRVAVSS
VL: DVVLTQTPGSLSVVPGESASISCKASQSLIHTDGKTYLYWLLQKPGQRPQLLIYQVSSHESGVPDRFTGSGSGTDFTLKISGVKAEDAGVYYCAQATYNPRTFGQGTKLEIK
notes: it was detected with goat anti-human IgG (Fc); also called mAb 6A6; llama antibody 6A6
For B1, the “% of binding to wild-type peptide” value (ApoC3 peptide … L67Y) was 3.08%, the “% of binding to wild-type peptide” value (ApoC3 peptide … L67R) was 22.6% and the “% of binding to wild-type peptide” value (ApoC3 peptide … D59Q) was 95%. For the same binder, the “% of binding to wild-type peptide” value (ApoC3 peptide … W65V) was 24%, the “% of binding to wild-type peptide” value (ApoC3 peptide … S62E) was 70.7% and the “% of binding to wild-type peptide” value (ApoC3 peptide … F64M) was 109%. For the same binder, the “% of binding to wild-type peptide” value (ApoC3 peptide … F64Y) was 86.4%, the “% of binding to wild-type peptide” value (ApoC3 peptide … S62G) was 53.9% and the “% of binding to wild-type peptide” value (ApoC3 peptide … E70L) was 1.22%. The “% of binding to wild-type peptide” value (ApoC3 peptide … D66R) was 0%, the “% of binding to wild-type peptide” value (ApoC3 peptide … K60G) was 117% and the “% of binding to wild-type peptide” value (ApoC3 peptide … K60R) was 105%. For the same binder, the “% of binding to wild-type peptide” value (ApoC3 peptide … V71E) was 228%, the “% of binding to wild-type peptide” value (ApoC3 peptide … E63D) was 77.9% and the “% of binding to wild-type peptide” value (ApoC3 peptide … K60I) was 116%. For the same binder, the “% of binding to wild-type peptide” value (ApoC3 peptide … D66P) was 0%, the “% of binding to wild-type peptide” value (ApoC3 peptide … D59W) was 78.1% and the “% of binding to wild-type peptide” value (ApoC3 peptide … F64N) was 153%. For the same binder, the “% of binding to wild-type peptide” value (ApoC3 peptide … E70Q) was 2.1%, the “% of binding to wild-type peptide” value (ApoC3 peptide … E70V) was 0.27% and the “% of binding to wild-type peptide” value (ApoC3 peptide … W65E) was 168%. The “% of binding to wild-type peptide” value (ApoC3 peptide … D59Y) was 70.2%, the “% of binding to wild-type peptide” value (ApoC3 peptide … F61Q) was 64.5% and the “% of binding to wild-type peptide” value (ApoC3 peptide … K60M) was 146%. For the same binder, the “% of binding to wild-type peptide” value (ApoC3 peptide … D68L) was 0%, the “% of binding to wild-type peptide” value (ApoC3 peptide … K60L) was 89.2% and the “% of binding to wild-type peptide” value (ApoC3 peptide … P69S) was 75.6%. The “% of binding to wild-type peptide” value (ApoC3 peptide … F64C) was 76.4%, the “% of binding to wild-type peptide” value (ApoC3 peptide … L67G) was 0.6% and the “% of binding to wild-type peptide” value (ApoC3 peptide … D68G) was 0%. The “% of binding to wild-type peptide” value (ApoC3 peptide … W65H) was 17%, the “% of binding to wild-type peptide” value (ApoC3 peptide … F64S) was 196% and the “% of binding to wild-type peptide” value (ApoC3 peptide … D68Q) was 0%. The “% of binding to wild-type peptide” value (ApoC3 peptide … D66L) was 0%, the “% of binding to wild-type peptide” value (ApoC3 peptide … D59T) was 101% and the “% of binding to wild-type peptide” value (ApoC3 peptide … V71L) was 78%.
